From PMC5268738, “A sequential multi-target Mps1 phosphorylation cascade promotes spindle checkpoint signaling” (eLife, 2017)

Biological target: scMad1^E–scMad2 complex (S. cerevisiae) (UniProt P40957)
Experiment: ITC; 20°C; 25 mM HEPES pH 7.5, 150 mM NaCl; scMad1 proteins (20 µM) in the cell; scBub1 phospho-peptides or phosphorylated scBub1_(449–530) (300 µM) injected

Sequence of scMad1^E–scMad2 complex (S. cerevisiae) (P40957 whole entry, chain 1 of 2): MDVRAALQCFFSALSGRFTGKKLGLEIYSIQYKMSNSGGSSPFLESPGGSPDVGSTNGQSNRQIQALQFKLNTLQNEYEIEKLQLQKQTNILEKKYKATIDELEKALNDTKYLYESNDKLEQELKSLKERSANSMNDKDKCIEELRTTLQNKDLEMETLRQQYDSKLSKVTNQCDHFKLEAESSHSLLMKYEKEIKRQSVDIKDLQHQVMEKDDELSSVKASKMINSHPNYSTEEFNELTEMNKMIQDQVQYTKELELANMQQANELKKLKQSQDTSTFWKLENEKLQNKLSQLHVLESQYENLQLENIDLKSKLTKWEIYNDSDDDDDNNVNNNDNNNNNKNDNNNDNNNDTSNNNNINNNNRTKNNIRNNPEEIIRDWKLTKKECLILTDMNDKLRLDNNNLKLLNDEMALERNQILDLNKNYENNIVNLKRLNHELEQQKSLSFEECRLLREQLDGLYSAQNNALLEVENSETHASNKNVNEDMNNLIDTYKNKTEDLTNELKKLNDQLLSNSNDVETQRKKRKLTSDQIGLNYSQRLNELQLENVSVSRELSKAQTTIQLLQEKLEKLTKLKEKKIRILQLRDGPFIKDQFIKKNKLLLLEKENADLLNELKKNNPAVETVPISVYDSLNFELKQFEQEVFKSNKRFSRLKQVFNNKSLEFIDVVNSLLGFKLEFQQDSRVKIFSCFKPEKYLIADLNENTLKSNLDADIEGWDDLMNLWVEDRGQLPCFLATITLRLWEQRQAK
Sequence of scMad1^E–scMad2 complex (S. cerevisiae) (P40958 whole entry, chain 2 of 2, further chain): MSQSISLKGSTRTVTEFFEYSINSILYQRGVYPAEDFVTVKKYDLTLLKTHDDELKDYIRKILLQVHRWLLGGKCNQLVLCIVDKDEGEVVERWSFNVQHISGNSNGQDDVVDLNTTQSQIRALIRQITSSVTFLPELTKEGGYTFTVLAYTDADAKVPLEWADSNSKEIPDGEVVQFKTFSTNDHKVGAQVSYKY

Kd: 2200 nM
B1: Mps1-phosphorylated scBub1_(449–530) fragment (domain or fragment)
chain: SRSPTVTAFSKDAINEVFSMFNQHYSTPGALLDGDDTTTSKFNVFENFTQEFTAKNIEDLTEVKDPKQETVSQQTTSTNETN
modifications: phosphothreonine at 453, phosphothreonine at 455, phosphoserine at 458 (mass spectrometry; co-expressed with scMps1)
